Assay: N-acetyl-β-amino acid acylase activity and optical selectivity of purified enzymes and cell-free extracts
Assay type: biochemical
Conditions: 30° C.; for Specific activity: purified enzyme after Mono-Q, 10 mM N acetyl-(R,S)-β-Phe, 50 mM Tris-HCl (pH 7.6); for Optical specificity (β-Phe enantiomer produced): purified enzyme, N-acetyl-(R,S)-β-Phe, 30 minutes
Experimental: 10 mM N acetyl-(R,S)-β-Phe, 50 mM Tris-HCl (pH 7.6), and a reaction solution containing a suitable enzyme sample were left standing from 15 minutes to 2 hours at 30° C., and then processed by boiling for 5 minutes to stop the reaction. The reaction solution was centrifuged. The supernatant was suitably diluted and then analyzed by HPLC. Acylase activity that produced 1 μmol of (R)-β-Phe or (S)-β-Phe per minute under these standard reaction conditions was defined as one unit. Activity producing (R)-β-Phe from N-acetyl-(R,S)-β-Phe will be referred to as N-acetyl-(R)-β-Phe acylase activity and activity producing (S)-β-Phe will be referred to as N-acetyl-(S)-β-Phe acylase activity hereinafter.
(R)-β-Phe, (S)-β-Phe, N-acetyl-(R)-β-Phe, and N-acetyl-(S)-β-Phe were quantitatively analyzed. The column employed was an Inertsil ODS3 (0.46 cm in diameter, 5 cm) made by GL Science and a Chiralpak WH (0.46 cm in diameter, 25 cm) made by Daisel Chemical Industries, arranged consecutively in that order. The mobile phase was 0.25 mM CuSO4, 2 percent (v/v) acetonitrile. The flow rate was 1.5 mL/minute. The column temperature was 50° C. Detection was conducted with a UV detector at 210 nm. In this analysis, the above four compounds eluted out at different elution times. The elution sequence, in order of elution speed, was (S)-β-Phe, (R)-β-Phe, N-acetyl-(R)-β-Phe, and N-acetyl-(S)-β-Phe. The quantities were calculated from the peak area values relative to various standard products.
An Inertsil Ph-3 (0.46 cm in diameter, 25 cm) column made by GL Science was employed. The mobile phase was 10 percent acetonitrile (adjusted to pH 3.0 with phosphoric acid). The temperature was 40° C. The flow rate was 1.0 mL/min. Detection was conducted under UV conditions of 210 nm and peak area values were calculated based on comparison with various standard racemic products.
Optical selectivity was measured using the purified enzymes as enzyme sources. Reactions were conducted under the above enzyme conditions for a period of 30 minutes. The quantity of enzyme added was 4.6 μg/mL (N-acetyl-(R)-β-amino acid acylase) or 3.1 μg/mL (N-acetyl-(S)-β-amino acid acylase).
The K83 strain obtained was precultured for 16 hours at 37° C. in LB medium containing 100 mg/L of ampicillin. A 1 mL quantity of the cultured bacterial cells was transferred to 50 mL of TB medium containing 100 mg/L of ampicillin and 1 mM of IPTG and cultured for 16 hours at 30° C. […] When the N-acetyl-β-amino acid acylase activity was measured under the separation conditions of N-acetyl-β-Phe and β-Phe, a value of 2.3 U/mg was obtained.
JM109/ptrp4—3BR was cultured for 16 hours at 37° C. in LB medium containing 100 mg/L of ampicillin. […] The quantity of β-Phe produced was measured by HPLC. […]

Molecule	Specific activity	Optical specificity (β-Phe enantiomer produced)
N-acetyl-(S)-β-amino acid acylase: enzyme purified from Burkholderia sp. AJ110349, subunit about 41 kDa, SEQ. ID. NO. 10 (protein, Burkholderia sp.AJ110349, enzyme purified from Burkholderia sp; ID; NO; 10) MDFCQMNDLASRKGRIQTVLGLIDPHELGPALMHEHLLIDLVPPKLAEDADHDQTEIDLCNCWKINYGQVPSLKNYRLDQKDVAVEELLEMRAAGGSAIVDLTTGGLKPDPQGLAQISREAGVHVVMGCGHYVHEYQDAANAHRSVDDFASEMIGQITEGAWGTQVRAGIIGEIGCQSPWTEQEKRVVRGALIAQQETGAALNIHPGRHAEQPQEVIDTIKSLGYPVERVIISHIDRTIFDDTRLLRLADSGCVIELDLFGWEQSAYPMSDIDMPNDGARLRMVRTLLDHGHAERVLISHDICTRTRLGRYGGHGYQHIFANVVPRMLRRDFTQDEIDTLLTRNPRRLLTFV	13.1 U/mg	Only the production of (S)-β-Phe was observed
N-acetyl-(R)-β-amino acid acylase: enzyme purified from Burkholderia sp. AJ110349, subunit about 84 kDa, SEQ. ID. NO. 8 (protein, Burkholderia sp. AJ110349) MITITGYSDVLSAGPGETVEFKVSSKSPHPFTAELVRVIHADPNPAGPGMRFEPLGQVFSGTFASFDKPLLPGSFARVSGVPAAGSAAGLVAGARIRPTALARGDQCVMSQWNTARHAGFALLVSERGLELRLGAGTGEPPVCVLCAARLEVRWYDVWFAIDTASNRIEVGVTEVDGSVAAPVRHRTLQMLDARWRAPHSDDAADLLIGALEDGAGRRAHFNGQIEAPFVADALPSPATPAATVEYAAPRASDFSTDALYAAWDFARGIDTLKIADTTPHARHGTLQNLPTRAVRSSAWNGRERCWRTAPAHYAAIHFHDDDLHDAGWSTDFAFTVPATLKSGAYAMRLSVDGATDYLPFYVRPELGRPGAPLVFVAATYTYQAYANYARGNFDAALRDKVGRWGAYPHNPDDHPEVGLATYNLHSDGSGVMFSSRLRPMLTMRPGFLTFDDSRGSGCRHYIADSHLLDWLEHEGFSFDVVTDDDLERFGAALLEPYAAVLTGTHPEYHTAATLDALAGYKRSGGNLAYLGGNGFYWRVGRSERVPGALEVRRTEGGVRAWAAEAGEYFHALDGEYGGLWRSSARTPQQLVGVGFSSQGPFEGSHYRVLDAARSQPGGSLLKDIAGPLFGGYGLSGGGAAGFELDSTEAADGTPANVIILARSESHSAAFGPALDALLSHTATRARKTPDTLIRSEIVYYETGYGGAVFSVGSITFCGALSHNDYRNDVSTLLRNVLIRFSRDRGAQAHAVPAVAHTEVD	12.4 U/mg	only the production of (R)-β-Phe was observed
